Laboratory results published in PMC10436073, “Saccharomyces cerevisiae NRE1 and IRC24 Encode Paralogous Benzil Oxidoreductases” (microPublication Biology, 2023).

B1: Nre1p (Saccharomyces cerevisiae S288C) (protein)
chain: MGKVILVTGVSRGIGKSIVDVLFSLDKDTVVYGVARSEAPLKKLKEKYGDRFFYVVGDITEDSVLKQLVNAAVKGHGKIDSLVANAGVLEPVQNVNEIDVNAWKKLYDINFFSIVSLVGIALPELKKTNGNVVFVSSDACNMYFSSWGAYGSSKAALNHFAMTLANEERQVKAIAVAPGIVDTDMQVNIRENVGPSSMSAEQLKMFRGLKENNQLLDSSVPATVYAKLALHGIPDGVNGQYLSYNDPALADFMP
B2: Irc24p (Saccharomyces cerevisiae S288C) (protein)
chain: MGKVILITGASRGIGLQLVKTVIEEDDECIVYGVARTEAGLQSLQREYGADKFVYRVLDITDRSRMEALVEEIRQKHGKLDGIVANAGMLEPVKSISQSNSEHDIKQWERLFDVNFFSIVSLVALCLPLLKSSPFVGNIVFVSSGASVKPYNGWSAYGCSKAALNHFAMDIASEEPSDKVRAVCIAPGVVDTQMQKDIRETLGPQGMTPKALERFTQLYKTSSLLDPKVPAAVLAQLVLKGIPDSLNGQYLRYNDERLGPVQG

Substrate: O=C(C(=O)c1ccccc1)c1ccccc1
Assay: purified protein
Type: biochemical, Saccharomyces cerevisiae
Details: NADPH 0.075 mM (preferred cofactor; NADH also measured), 10 mM Tris-HCl pH 8.0, 30 C, apparent Km

Row | Protein | Km
1 | B1 | 390 µM
2 | B2 | 420 µM
